Assay results reported in PMC6996315.

Target: human α3β2 nicotinic acetylcholine receptor (human) (UniProt P32297)
UniProt P32297, sequence (P32297 32-505, chain 1 of 2): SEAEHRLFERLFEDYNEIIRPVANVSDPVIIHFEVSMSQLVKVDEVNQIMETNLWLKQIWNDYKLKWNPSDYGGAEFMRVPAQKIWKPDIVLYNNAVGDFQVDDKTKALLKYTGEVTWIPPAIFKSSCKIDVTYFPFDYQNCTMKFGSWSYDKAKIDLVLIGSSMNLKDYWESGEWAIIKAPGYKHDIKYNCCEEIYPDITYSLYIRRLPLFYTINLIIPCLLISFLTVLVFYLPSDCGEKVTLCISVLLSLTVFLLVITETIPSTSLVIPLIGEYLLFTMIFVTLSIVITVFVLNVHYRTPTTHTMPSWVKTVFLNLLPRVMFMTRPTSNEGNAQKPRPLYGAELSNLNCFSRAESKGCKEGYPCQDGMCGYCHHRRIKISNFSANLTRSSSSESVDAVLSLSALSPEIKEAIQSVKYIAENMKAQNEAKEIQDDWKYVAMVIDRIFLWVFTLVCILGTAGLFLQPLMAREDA
UniProt P32297, sequence (P17787 26-502, chain 2 of 2, further chain): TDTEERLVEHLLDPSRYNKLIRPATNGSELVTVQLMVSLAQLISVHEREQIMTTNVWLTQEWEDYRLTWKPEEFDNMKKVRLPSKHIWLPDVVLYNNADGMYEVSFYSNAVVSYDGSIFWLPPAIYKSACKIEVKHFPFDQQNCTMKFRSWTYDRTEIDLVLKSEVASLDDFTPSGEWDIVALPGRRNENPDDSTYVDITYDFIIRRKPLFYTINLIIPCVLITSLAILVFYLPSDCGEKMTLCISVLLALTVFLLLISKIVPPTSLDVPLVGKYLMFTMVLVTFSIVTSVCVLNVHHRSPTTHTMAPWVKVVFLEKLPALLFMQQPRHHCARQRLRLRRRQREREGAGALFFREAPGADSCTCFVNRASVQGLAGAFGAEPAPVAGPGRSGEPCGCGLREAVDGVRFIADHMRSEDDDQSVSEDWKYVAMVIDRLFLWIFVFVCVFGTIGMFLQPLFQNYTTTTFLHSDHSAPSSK

drysdalin (natural protein)
inhibition of ACh‐evoked peak current at 30 nmol/L drysdalin, Xenopus oocytes: 13%
